Experimental findings from patent US20020127702A1 (University of California, published 2002) are described below.

B2: hCdc5 central domain (amino acids 365-501), His6 fusion (other)
chain: EAQNLMALTNVDTPLKGGLNTPLHESDFSGVTPQRQVVQTPNTVLSTPFRTPSNGAEGLTPRSGTTPKPVINSTPGRTPLRDKLNINPEDGMADYSDPSYVKQMERESREHLRLGLLGLPAPKNDFEIVLPENAEKE
notes: Expressed and purified in E. coli as a His6 fusion; not shown: His6 tag
B3: hCdc5 DNA binding domain (amino acids 1-120), His6 fusion (other)
chain: MPRIMIKGGVWRNTEDEILKAAVMKYGKNQWSRIASLLHRKSAKQCKARWYEWLDPSIKKTEWSREEEEKLLHLAKLMPTQWRTIAPIIGRTAAQCLEHYEFLLDKAAQRDNEEETTDDP
notes: Expressed and purified in E. coli as a His6 fusion; also called helix-turn-helix domain; not shown: His6 tag
B4: hCdc5 putative nuclear localization domain (amino acids 205-358), His6 fusion (other)
chain: KRGVDYNAEIPFEKKPALGFYDTSEENYQALDADFRKLRQQDLDGELRSEKEGRDRKKDKQHLKRKKESDLPSAILQTSGVSEFTKKRSKLVLPAPQISDAELQEVVKVGQASEIARQTAEESGITNSASSTLLSEYNVTNNSVALRTPRTPAS
notes: as for B2

Series [1] deals with the molecule itself. Put plainly: glutaraldehyde cross-linking of purified His6 fusion.
Series [2] has as its target B2. The series is described as follows: glutaraldehyde cross-linking of purified His6 fusions.
Series [3] has as its target B4. The description is as above.
In series [4] the target is B3. The description is as above.
Series [5] deals with the molecule itself. Put plainly: glutaraldehyde cross-linking of purified His6 fusion, SDS-PAGE and anti-His immunoblot.

B1: hCdc5 carboxyl terminal domain (amino acids 491-802), His6 fusion (other)
chain: EIVLPENAEKELEEREIDDTYIEDAADVDARKQAIRDAERVKEMKRMHKAVQKDLPRPSEVNTEILRPLNVEPPLTDLQKSEELIKKEMITMLHYDLLHHPYEPSGNKKGKTVGFGTNNSEHITYLEHNPYEKFSKEELKKAQDVLVQEMEVVKQGMSHGELSSEAYNQVWEECYSQVLYLPGQSRYTRANLASKKDRIESLEKRLEINRGHMTTEAKRAAKMEKKMKILLGGYQSRAMGLMKQLNDLWDQIEQAHLELRTFEELKKHEDSAIPRRLECLKEDVQRQQEREKELQHRYADLLLEKETLKSKF
notes: as for B2
As for B1, the binding result in series [1], in series [2], in series [3] and in series [4] was “no binding” throughout.

With B2, the binding result in series [1] and in series [3] was “no binding” each time.

Regarding B3, the binding result in series [5] is listed as “binds”; in series [2], “no binding”; in series [3], “no binding”.

For B4, in series [5], the binding result is “binds”.
